In paper PMC2686680, “Chibby forms a homodimer through a heptad repeat of leucine residues in its C-terminal coiled-coil motif” (BMC Molecular Biology, 2009):

B1: Cby wild type fused to the N-terminal (RN) or C-terminal (RC) portion of synthetic Renilla luciferase (hRluc) [human] / itself (parent complex)
chain: MPFFGNTFSPKKTPPRKSASLSNLHSLDRSTREVELGLEYGSPTMNLAGQSLKFENGQWIAETGVSGGVDRREVQRLRRRNQQLEEENNLLRLKVDILLDMLSESTAESHLMEKELDELRISRKRK

Variants of: B1
Assay: split hRluc protein-fragment-assisted complementation assay; HEK293T cells; expression plasmids 400 ng each; triplicate, means ± SD; read off a plot

| response | Variant |
| --- | --- |
| ~0.7 | chain 1 L91A, chain 1 L98A |
| ~0.55 | chain 1 L77A, chain 1 L91A |
| ~0.28 | chain 1 L84A, chain 1 L98A |
| ~0.5 | chain 1 L77A, chain 1 L84A, chain 1 L91A, chain 1 L98A |
| ~0.18 | chain 1 L77A, chain 1 L84A |
| ~1.9 | chain 1 L84A |
| ~3.2 | chain 1 L77A |
| ~5.4 | chain 1 L98A |
| ~4 | chain 1 L91A |
